B1: Ubac2-EGFP (natural protein, mouse, UniProt Q8R1K1 40-345, looked up)
chain: FFVYDLHAVKHDLQIWRLICGRIICLDLKDAFCSGLLIYNFRIFERRYGSRKFASFLLGSWVLSALFDFILVEAVQYSLGVTVASNLPSGFLAPVFALFVPFHCSIPRVQVAQILGPLSITNKTLIYILGLQLFTSGSYIWIVAMSGLISGMCYDRKVLQVHQVLRIPGRMAEFFSWALEPIFSSSEPTSEARVGMGATVDIQRQQRMEQLDRQLMLSQFAQVRRQRQQQGGMINWNRLFPPLRQRRNINYQDGPRSEQRASPPLEVSEEQVARLMEMGFSRGDALEALRASNNDLNVATNFLLQH
notes: Ubac2, mouse cDNA from the IMAGE consortium, subcloned into pEGFP-N1; FRET donor; vector pEGFP-N1; source: HEK293T, transfected, in living cells
B2: Derlin1-EGFP (natural protein, mouse, UniProt Q99J56 1-251, looked up)
chain: MSDIGDWFRSIPAITRYWFAATVAVPLIGKLGIISPAYFFLWPEAFLYRFQIWRPFTATFYFPVGPGTGFLYLVNLYFLYQYSTRLEAGAFDGRPADYLFMLLFNWICIVITGLAMDMQLLMIPLIMSVLYVWAQLNRDLIVSFWFGTRFKACYLPWVILGFNYIIGGSVINELIGNLVGHLYFFLMFRYPMDLGGRNFLSTPQFLYRWLPSRRGGVSGFGVPPASMRRAADQNGGGGRHNWGQGFRLGDQ
notes: Derlin1, mouse cDNA from the IMAGE consortium, subcloned into pEGFP-N1; FRET donor; vector pEGFP-N1; source: HEK293T, transfected, in living cells
B3: SYVN1-EGFP (natural protein, mouse, UniProt Q9DBY1 1-612, looked up)
chain: MFRTAVMMAASLALTGAVVAHAYYLKHQFYPTVVYLTKSSPSMAVLYIQAFVLVFLLGKVMGKVFFGQLRAAEMEHLLERSWYAVTETCLAFTVFRDDFSPRFVALFTLLLFLKCFHWLAEDRVDFMERSPNISWLFHCRIVSLMFLLGILDFLFVSHAYHSILTRGASVQLVFGFEYAILMTMVLTIFIKYVLHSVDLQSENPWDNKAVYMLYTELFTGFIKVLLYMAFMTIMIKVHTFPLFAIRPMYLAMRQFKKAVTDAIMSRRAIRNMNTLYPDATPEELQAVDNVCIICREEMVTGAKRLPCNHIFHTSCLRSWFQRQQTCPTCRMDVLRASLPAQSPPPPEPADQGPPPAPHPQPLLPQPPNFPQGLLPPFPPGMFPLWPPMGPFPPVPPPPSSGEAAAPPPTSTAVSRPSGAATTTAAGTSTSAPAPGSVPGPEAGPAPGFPFPPPWMGMPLPPPFAFPPMPVPPAGFAGLTPEELRALEGHERQHLEARLQSLRNIHTLLDAAMLQINQYLTVLASLGPPRPATSVNPTEETASTVVSAAPSTSAPSSEAPTPSPGASPPIPEAEKPPAPESVGIVEELPEDGEPDAAELRRRRLQKLESPVAH
notes: SYVN1 (Hrd1), mouse cDNA from the IMAGE consortium, subcloned into pEGFP-N1; FRET donor; vector pEGFP-N1; also called SYVN1-GFP; source: HEK293T, transfected, in living cells
B4: EMC1-EGFP (natural protein, mouse, UniProt Q8C7X2 24-997, looked up)
chain: YEDQVGKFDWRQQYVGKIKFASLEFSPGSKKLVVATEKNVIAALNSRTGEILWRHVDKGTAEGAVDAMLVHGQDAITVSNGGRLMRSWETNIGGLNWEITLDTGSFQALGLVGLQESVRYIAVLKKTTLTLHHLSSGHLKWVEHLPESDSILYQMVYSYGSGVVWALGIVPFSHVNIVKFNVEDGEIVQQVRVWTPWLQHLTGACGVVDEAVLVCPDPSSHSLHTLALETEWELRQIPLQSPDLEFGSGFQPQVLPTQPSPVAPSRAQFFLQLSPSHYALLHYHHGAVTLLKNFPQATLVSFATTGEKTVAAVMTCRTEVQKPVSAGDGSVASFPETSGAQDSLACFNQTYTINLYLVETGRRLLDTSISFSLEQKGTRPEQLYIQVFLKKDDSVGYRALVQTQDHLQLFLQQLAGKVVLWSREESLAEVVCLEMVDLPLTGAQAELEGEFGKKAAIQDGLLGMFLKRLSSQLILLQAWTSHLWKMFYDARKPRSQIKNEINIDTLARDEFNLQKMMVTVTASGKLFGIESSSGTILWKQYLPNVKPDSSFKLMVQRTTAHFPHPPQCTLLVKDKETGMSSLFVFNPIFGKWSQVAPPVLKRPILQSLLLPVMDQDYAKVLLLVDDEYKVTAFPATRNVLRQLHELAPSIFFYLVDAEQGRLSGYQLRKDLTTELSWELTIPPEVQRVVKVKGKRSSEHVHSQGRVMGDRSVLYKSLNPNLLAVVTESTDVHHERTFIGIFLIDGVTGRIIHSSVQKKARGPVHLVHSENWVVYQYWNSKARRNELTALELYEGTEQYNATAFSSLDRPQLPQVLQQSYIFPSSISAMEATITERGITSRHLLIGLPSGAILSLPKALLDPRRPEIPTEQSREENLIPYSPDVQVHAERFINYNQTVSRMRGIYTAPSGLESTCLVVAYGLDIYQTRVYPSKQFDVLKDDYDYVLISSVLFGLVFATMITKRLAQVKLLNRAWR
notes: EMC1, mouse cDNA from the IMAGE consortium, subcloned into pEGFP-N1; FRET donor; vector pEGFP-N1; source: HEK293T, transfected, in living cells
B5: EMC3-EGFP (natural protein, mouse, UniProt Q99KI3 1-261, looked up)
chain: MAGPELLLDSNIRLWVVLPIVIITFFVGMIRHYVSILLQSDKKLTQEQVSDSQVLIRSRVLRENGKYIPKQSFLTRKYYFNNPEDGFFKKTKRKVVPPSPMTDPTMLTDMMKGNVTNVLPMILIGGWINMTFSGFVTTKVPFPLTLRFKPMLQQGIELLTLDASWVSSASWYFLNVFGLRSIYSLILGQDNAADQSRMMQEQMTGAAMAMPADTNKAFKTEWEALELTDHQWALDDVEEELMARDLHFEGMFKKELQTSIF
notes: EMC3, mouse cDNA from the IMAGE consortium, subcloned into pEGFP-N1; FRET donor; vector pEGFP-N1; also called EMC3-GFP; source: HEK293T, transfected, in living cells

The results in this text go back to publication PMC5684335, “ER-associated degradation regulates Alzheimer’s amyloid pathology and memory function by modulating γ-secretase activity” (Nature Communications, 2017).

The target in the first assay is T1, membralin-mCherry (mouse, UniProt Q8CIV2 1-574).
T1 construct: membralin (TMEM259), mouse cDNA from the IMAGE consortium, subcloned into pmCherry-N1; FRET acceptor; also called mCherry-tagged membralin; source: HEK293T, transfected, in living cells
T1 sequence (Q8CIV2 whole entry): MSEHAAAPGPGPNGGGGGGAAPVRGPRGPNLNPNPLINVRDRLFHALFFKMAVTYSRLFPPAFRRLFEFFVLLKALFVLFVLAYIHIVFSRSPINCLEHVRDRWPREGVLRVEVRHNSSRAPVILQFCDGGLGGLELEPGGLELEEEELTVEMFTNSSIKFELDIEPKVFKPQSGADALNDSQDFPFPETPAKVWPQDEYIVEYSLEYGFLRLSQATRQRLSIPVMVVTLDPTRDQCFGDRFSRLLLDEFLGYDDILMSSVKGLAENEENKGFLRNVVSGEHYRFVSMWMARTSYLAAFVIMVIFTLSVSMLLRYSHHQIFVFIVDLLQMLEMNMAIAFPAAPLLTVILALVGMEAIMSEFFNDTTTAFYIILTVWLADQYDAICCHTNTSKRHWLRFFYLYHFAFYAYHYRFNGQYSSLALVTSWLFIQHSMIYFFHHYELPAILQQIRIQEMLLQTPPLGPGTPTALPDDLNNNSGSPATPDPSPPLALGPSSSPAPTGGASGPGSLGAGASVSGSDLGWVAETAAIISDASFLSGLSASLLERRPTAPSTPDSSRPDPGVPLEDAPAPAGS
Nature of the assay: FRET or BRET; acceptor photobleaching in HEK293T co-transfected 24 h with target-EGFP (donor) and membralin-mCherry (acceptor); 10 cells, three independent experiments.
Conditions: not given
(Bioluminescence resonance energy transfer reports proximity on the nanometre scale.)
“FAM8A1-EGFP (from UniProt Q9UBU6 1-413) (natural protein)” returned an FRET efficiency of 33.9%.

Still in this assay, the particulars now being: partners not purified.
Consider B1, for which the FRET efficiency worked out at 33.1%.

Consider B2, for which the FRET efficiency stood at 12.3%.

On to B3, for which the FRET efficiency was determined as 21.8%.

Turning to B4, the FRET efficiency came to 22.4%.

Consider B5, for which the FRET efficiency was found to be 26.3%.
